The results in this text go back to patent publication US20200199225A1 (AVA LIFESCIENCE, published 2020).

In the assay the target is T1, CLL subset 2 typical BCR (HC/LC typical for the CLL subset 2) expressed on the surface of TKO cells.
T1 construct: also called CLL-Subset2 BCR; BCR of Interest
As to the kind of experiment: FACS on TKO cells expressing the CLL receptor. The text has this:
Monoclonal antibodies were produced using the standard procedure in mice and the subsequent generation of hybridoma cells. The screening for positive clones was not performed by ELISA as usual. Since the target structure is a membrane-bound receptor, it is of central importance to validate the binding of the potential antibodies in a cellular system, i.e. while largely preserving the cell physiological states native to this cell type. First, groups of pooled supernatants were examined for binding events using FACS analysis. For this purpose different CLL-Subset 2 BCR variants were expressed on the surface of a cell line (TKO), which cannot express BCR itself. […] Subsequently, the supernatants of the individual hybridoma clones were examined in more detail with regard to their binding in order to identify highly specific clones with a high affinity.
For the screening procedure, different vectors were used in the previous transformation for the following heavy chain (HC) and light chain (LC) combinations of the corresponding CLL-BCRs, these combinations being used on the surface of the BCR reconstitution system: [0074] Control (transformation vector without BCR) (see FIG. 1 A) [0075] Vector with HC/LC typical for the CLL subset 2 (see FIG. 1 B) [0076] Vector with a non-CLL subset 2 HC/a LC typical for the CLL subset 2 (without target motif; epitope) (see FIG. 1 C) [0077] […]

T1 sequence (heavy, as listed by the source, chain 1 of 2): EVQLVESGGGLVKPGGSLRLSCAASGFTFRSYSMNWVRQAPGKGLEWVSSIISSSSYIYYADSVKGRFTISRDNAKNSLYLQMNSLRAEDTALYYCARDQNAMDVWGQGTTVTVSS
T1 sequence (light, as listed by the source, chain 2 of 2): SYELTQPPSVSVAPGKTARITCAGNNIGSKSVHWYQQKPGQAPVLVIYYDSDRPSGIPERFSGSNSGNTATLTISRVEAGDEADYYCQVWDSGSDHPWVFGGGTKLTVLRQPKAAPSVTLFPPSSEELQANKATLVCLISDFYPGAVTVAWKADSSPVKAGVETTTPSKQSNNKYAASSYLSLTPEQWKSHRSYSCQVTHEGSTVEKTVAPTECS

B1: AVA-mAb01 (antibody, V domains shown)
VH: QVQLQQSGPGLVQPSQSLSITCTVSGFSLTSYGIHWVRQSPGKGLEWLGVIWRGGGTDSNAAFMSRLSITKDNSKSQVFFKMNSLQADDTAIYYCARSRYDEEESMNYWGQGTSVTVSS
VL: QIVLTQSPASLSASVGETVTITCRASGNIHSYLAWYQQKQGKSPQLLVYNAKTLADGVPSRFSGSGSGTQYSLKINSLQPEDFGSYYCQHFWNTPPTFGAGTKLELK
notes: Murine monoclonal antibody from a hybridoma, tested as hybridoma supernatant and detected with a fluorescence-labeled anti-mouse-IgG antibody; the constant regions are not; also called specific monoclonal antibody against Subset-2; the selected antibody
Turning to B1, the binding result is “binds”.
